Publication PMC11605949

Target: HER2 (human, UniProt P04626 23-652)
Assay: SPR

B1: HER2 aptamer (ssDNA)
DNA: AACCGCCCAAATCCCTAAGAGTCTGCACTTGTCATTTTGTATATGTATTTGGTTTTTGGCTCTCACAGACACACTACACACGCACA
modifications: 5'-SH-(CH2)6
**Q.** Does B1 bind?
**A.** Result: binds
